Measurements as given in the DeepSol protein solubility set.

Experiment: soluble on expression in E. coli; label from the status in PepcDB or PDB records

Sequence	soluble on expression in E. coli
MLNSYELGTSFSLEYPRLVLPWMSKKMMSSRFPQHTSFKLYASQLNRARFFKMLSFGGTVSYDFQPSRVWKHTVTPFRLAFNTLQHTTTRFDTIVDKNRSLKISLGNQFIPAMSYTFTYDNAPLKKRNNLWWETSFTSAGNLTSLVYAAFGKGFKETDKKLLNSPYAQFLKMTSEVRCLFKVGEKQHIATRLMGGILYAYGNQTVAPYSEQFYIGGANSIRAFTVRSIGPGSYRPEDKQYGYLDETGDVKLEANVEYRFPILGDLYGAAFLDAGNVWLLREQKNEEGENIRPGGLLTLRNFAKSIALGTGVGLRYDLTFLVIRLDLGIALHDPYDTGKKGYYNIPKFKDGLGLHFAIGYPFLEHHHHHH	soluble
MLNTKSPSPANSNYDFALRHERVKLIARALKQFGVYITRTTQAMREVASCLSLVGQSYHEVAQCVNNTNPHSRADQDCYISFNRQLVESYGANLQNAATLFSAEMMNIKNGEQFLSYNKSVHRTVMTRLHDVLKMAQRTRDLGDDVKAELKKATSCRKVVSRKEAKYIRKGRPLTESKLYVRQSERMRKHDQAYEAKLRTFDTEYESLMQRQLYVAGHTMDDFLDMNTVYLSHILKVLGCLAPNGAEAIQKMLDSGEKLSDLLGIAPEDQLGCRLRAQNVDVLNSSNVTPVKRGVGATPGKGTPAKSSCCGSSHNFTSYYQNRRQAALYVEGAPPTARALGEDSRGSSEPCQTLSETPERQLISNQTPLRATFGSAAICRAASHSYSAAEPAAPSPLQPPSFPAAVRRVDAAPVPYVKPLAIGLHASCGSPGTTTDAAKQTCPAGNAAPAAWVVKTGGRRGSVCDTTNSRTRVELSLGHAQFDDDNTAAGAPPAACLAPAPPPAQYSEERPMERPLGRSEVPAAQAAMFGLDVARSAAPFDDQLVADSCRRTSLLSLKPVALFPLDVSESSISRKVAPRTSAATTSVANPSTQQRSRRDRKKHKTTKVVAAARGVPLPGTASAPPDEDTMSRSTSTQSQEALESSIHGYHAAHYHCPPPQQLHNLKQHPQRDSAPVSLAHFQMELTGCSGDAPCQWRNDGLCSEAGGVSGRSQRLSTSYGLDSPTPTPQPFALGTHAWEDSQVRPCSSA	not soluble
MLNYTGLENKNVLVVGLAKSGYEAAKLLSKLGANVTVNDGKDLSQDAHAKDLESMGISVVSGSHPLTLLDNNPIIVKNPGIPYTVSIIDEAVKRGLKILTEVELSYLISEAPIIAVTGTNGKTTVTSLIGDMFKKSRLTGRLSGNIGYVASKVAQEVKPTDYLVTELSSFQLLGIEKYKPHIAIITNIYSAHLDYHENLENYQNAKKQIYKNQTEEDYLICNYHQRQVIESEELKAKTLYFSTQQEVDGIYIKDGFIVYKGVRIINTEDLVLPGEHNLENILAAVLACILAGVPIKAIIDSLTTFSGIEHRLQYVGTNRTNKYYNDSKATNTLATQFALNSFNQPIIWLCGGLDRGNEFDELIPYMENVRAMVVFGQTKAKFAKLGNSQGKSVIEANNVEDAVDKVQDIIEPNDVVLLSPACASWDQYSTFEERGEKFIERFRAHLPSY	not soluble
MLPFLAASPGLGDVRAPAIWLGLVSQPSRTPIITKNSKTKRKTDGSTTRQSSSLGPRSSPLRSAGGQLRKTTRSELKKSHFHLGSWNAQSLLGPRLASGVEYLKNSTCHVVNLQETRFFSMASIDQPEFQLLFSPKTNSKDLGLGFFVKKCQDLEVINVSWIGVGIASLELEFRKVKIMVLNVYAPVCKSRSENDAKRFFERLRAEYIQLRKSFKGPIVLGGDFNAATSCSTNDELAPWICGNVFGNSNNHGDFFFNFLASTRLFQLNSRFRKRLASRWTFAGKKGVGRTEIDFFISNRIDLVEDVSTFPNLHNLSDHRLIRSRWVISVKSERDHAFKSRRPPSTGKERDWTLYEDAIKDLRKHATLGSYDSFVKTLRQGLVPLPAHKPHKFSQRTIMILQERRQVLESSVPDIAKLRKLSQEARKSITEDLTQKYDSILEACRKKRSSKILNKSIPAEIPLQYLEWPDGSLTANRIEIRKIVESHFKTLYEAPTSSPSHPRNPNSNPPNSDPVPAILKCEVRLEIRKLKTKSAPGLDNVDAAMLKNGGDTVVDSVTALFNDILHHNKVPDLWKIADVKLIPKKAKATKIKDFRPISLLPILSKMFSSILTRRLTPTLESYLDESQTKVFRKGRCCADNIQSLTMLIEKCNEFQLPLLLLFIDYQTAFDKISHSSVVSSLERAGADPAMRKMIQELMEGGQAEITVHDKKLKVNLCTGIRQGDSASPALFSAALQAILTDCDNELAGVGISVEGRHIRRLEFADDVVLICSTPEEVQERLEILDRISSNYGLKINQSKTVLLKNKFCRSQDILFNGSPIIPVPGCRYLGRWIDISGSIDEEISRRIRAGWGALVGIKEVLRIMPNKERIILFKQNVLPALLYASETWTCNAGSTLRLKRTVTGLIDAAEIRGWNFNLERYLLAKQSRFAGHILRRDPF	not soluble
MLPKPGTYYLPWEVSAGQVPDGSTLRTFGRLCLYDMIQSRVTLMAQHGSDQHQVLVCTKLVEPFHAQVGSLYIVLGELQHQQDRGSVVKARVLTCVEGMNLPLLEQAIREQRLYKQERGGSQ	soluble
MLQLLLFLIFCSFTNASSCQDKSPYCNPNDCEVRPGYAMVYCRKTCGNCADFCEDSKFITCSAERKKDCDDMLSDYCPRLCGKCYAKLKPDSKRTKTIPVTQFKRNPAATSTTTTTTRSPSIRMKQPRMLPNGTFINPPLPKYEKLDDTTYTIPEHPTVIDYPIAHMEELMIPEPQRIWPEPEPMRIEPISVYSPYSFVPVQPQVSQPYSPWSPTLGLSSSLDSSRRAPQNYFSSYSQYPQYPDEKLNTIAPNPMQLVEPFLTPGQNDLNPKSMSSLINLLGCKDKDEVICKHVTADTCLSRPGYYLKLCPVTCKNCSGYQCIDSIKIDCAEVKAQGACKLSVASEYCPRTCEYCNPPSDMAKTMSDCKDELETCEQLAESGACQHDFR	not soluble
MLQPPKIVAELSANHNQDLNLAKESLHAIKESGADFVKLQTYTPSCMTLNSKEDPFIIQGTLWDKENLYELYQKASTPLEWHAELFELARKLDLGIFSSPFSSQALELLESLNCPMYKIASFEIVDLDLIEKAARTQKPIILSSGIATHTELQDAISLCRRVNNFDITLLKCVSAYPSKIEDANLLSMVKLGEIFGVKFGLSDHTIGSLCPILATTLGASMIEKHFILNKSLQTPDSAFSMDFNGFKSMVEAIKQSVLALGEEEPRINPKTLEKRRFFARSLFVIKDIQKGEALTENNIKALRPNLGLHPKFYKEILGQKASKFLKANTPLSADDIERSLLEHHHHHH	not soluble
MLQSINQLNPDIVVITGDLTENGFSAEYDGVKMFIDRIECKNRVLVPGNHDSKNAGYLHFEDLFENRFQTRNLGNMTIVGADSSQPDIDDGHLGRENYGWIKEAFSGENFKVFALHHHLVPIPLAGRENTVLVDAGDVLDLLNKCRVNLVLCGHCHIPHVWNLNNMLVVNAGTFCSSKTRGKTTQCFNLIQAENSEKNGNGESEKIEDGGWKVRVSRVFPQGNIEFITETVMLEHHHHHH	not soluble
MLRAAGNLSKSMMKSQRRFLNLQEFQSKEILEKHGCSVQNFVVASNRKEAEEKWMSFGDHEYVVKAQILAGGRGKGKFINGTKGIGGVFITKEKDAALEAIDEMIGKRLVTKQTTSEGVRVDKVMIAEGVDIKRETYLAVLMDRESNGPVVVASPDGGMDIEAVAEKTPERIFKTPIDIQMGMTEGQSLKIAKDLQFEGKLIGVAAQEIKRLYDLFIAVDATQVEINPLVETADGRVFCVDAKMNFDDSAAYRQKEIFAYETFEEHDPREVDAHQFNLNYIGMDGNIACLVNGAGLAMATMDLIKLHGGEPANFLDVGGAVTEDAVFNAVRIITSDPRVKCVLINIFGGIVNCATIANGVVSAVNKIGLNVPMVVRLEGTNVDAAKQIMKKSGLKILTANNLDEAAAKAVSSLPK	not soluble
MLRAKLLSWQEGVGSKTFEFDVDVEPRSYVISKVSQLSPIIASEDLTVCEGEVAVVGTRVIEIPENTVVRPVAAISHANGFVADVIECGAPGMVEDEKCINHAVFIPTRSGDVKEGDLLGMLRINFVRTGLLSRVIPSKPRVEERTVKASLTWVEGGVFYRENVTGTFSGYFESERCSLLPIVADERVRIEKGGVSAVEIERVDVKGGSIITPYGLAANAFAQLLDLVGGRTRKFEEDRVFDEAVLVGFSDGVVEKGEVLGLVCVMGESSGGGNSRQLQFSRKAGKGVVKTIHEYRSKPLRVGRKGEWRPAISDENRKLIRGVAEIIKIRPINVPDYAVVNPLGIMRQAYGTMVGGIANEPWSLESRKTIEEVVFLPIMDGEVRKGQLIGVFNVTRVAEGKLLEHHHHHH	soluble
MLRCCSALMCPTAVPSRVSPVAAAAAADIAGSSESTVSLVADVDKKNSQYKQIFLERFRKKLQSDKTGMNNLESFVELPEGVAPSAASIGPIKRGSEPLPPWIKLKVPKGMTHRPRFNRIRRSMREKNLSTVCEEAKCPNIGECWGGSDEEGTATATIMVMGSHCTRGCRFCSVLTSRRPPPLDPEEPEKVAAAVHEMGVDYIVMTMVDRDDLPDGGASHVCCCIHTIKKKNPELMLEALVGDFHGDLKLVEQLAVTPLSVYAHNIECVERITPRVRDRRASYRQSLQTLEHVTKWTNGNMLTKSSIMLGLGEEEAEVRQTLRDLRTAGVSAVTLGQYLQPSHTRLKVSRYAHPKEFEMWEKEAMDMGFLYCASGPMVRSSYRAGEYYIKNILKQRQSAEGGKAAAAATAVNAGTAIA	not soluble
MLRHKEPGSGSGGGVYWVDSQQKRYVPVKGDHVIGIVTAKSGDIFKVDVGGSEPASLSYLSFEGATKRNRPNVQAISSRLLEHHHHHH	not soluble
MLRRSSVVLARFQPYSMAVQTRFKWRHKETDRWRRLMDATCFQVDWLGQTAGPNFAQYSGHWTHVITCAHVITPWDYPNYYPPQGPTRFVSHITLADTMTQIRLVSMQGNAVYKHFTSNQHVFVHSNPRLDLCVLHPEQNLKRSGEMKMMWMQNEGYISRPRLEINETLKVGDYVWVYGMSAHESLFDEEKGPEPLMIPTGVRARVHAVTREHFFLDTTALEDNPDRGRIQMGMCGSVVMRNGKCVGMLTATVHEESDCKELAGTAMCTYSSDVFEFLLEVEKQMKNPVARQSQEETRFEQRRRAEGGVKEHKHWELDESRTARHIPVPVSLWHMEEKWVTEEDYMNSAVFGRSGAFNQETQESALGYDMNTAKTNGDRPGDIDSFMSTTTTGKPVMQGERKDYSPTGVYANVEEFKNKDVWDYNVSSEMRSLFNETVDSKDAESLNMMRKSLENIRAQRAMEKMKETVMNRTEPGFDPLKGYGHYGGSADAGAANFNPEYASAHKGSGDAYSYAQAAQQAAREQPGDHASPASTPPPSPPPPNESVIDRKKRERREAEAKYQEELRRRHGQRAVPFGDEDLSGFWERR	not soluble
MLRRVNEQGPVQGRAQAPVKPDDSVPPELARARVWILTDGKAGDENQCIGIAEALGLAYETRRIPDGRPLTWMAPWGPIDPRDAPGRAGGLLQGPLPHLLIASGRRAVPYLRAVRRASDEKTFTAFLKDPRTGHDTADFIWVPDYDDLRGPNVFTTLTAPHPVSRARLDAARTTPDPRLARLPWPRIAVLIGGDSRHLRYRKADMQRLVRDLTKLAEGGCSLMLTVSRRTPPDLRKALEDLVKDKGGFFWDGSGENPYVGMLAIADHIVVTSDSANMVGEAASTGVPLLLFDLPRTYIRHRRMFAGLAMAGALKPFIGRLEALRYAPIDATPEIAAALAEGYQRHRARLAGEVAAVPRPAEPTSAPRGPFLEHHHHHH	not soluble
MLSALACNMKYSSHPAAVAAGRGGNRRGGRMYAYERITDPAGFAAIEDEWRALAEACGGGGVFASHAFLLSWAETFGQGRRLAVSLLRHKGALVGALPMFHTGQARAVAAMGEGRAGMAQWLLHPDLPDADAALAALLRPDWLSFWRLEPLETPDAEALERAARRAGLAVRRKATMRACSVTTEGDFDSYLGGLKSKTRQVFRRSERKLAEMEVRDLRSDRDGRAALDAYLAASRASWKGLTGTGYGAAPEGVAFVEKLFERLGPEACYLAARQVGEVAISGRFVLVHDNMHYGMANDFNEEYADLAVGRNSIMQSVRDAFEGGAAGFDFTRCNGLVREVSTDERPLERVLIHRRGDPTLAAFFAARGLRRLRRKASGWQKGRRGVVS	not soluble
